From publication PMC9257651
One block for each substance: values may come before it.

Experiments:
[1] = target: ClpP1 co-expressed with ClpP2 in E. coli (L. monocytogenes); test: SEC
[2] = target: Full-length ClpP2 with a C-terminal Strep-tag II (tetradecamer, ClpP2_(14)) (L. monocytogenes); test: SEC + other: intact protein mass spectrometry
[3] = target: C-terminally myc-tagged ClpP2 (ClpP2-2×myc) (L. monocytogenes (endogenous gene in L. monocytogenes EGD-e)); test: affinity purification with mass spectrometry
[4] = target: ClpP2 co-expressed with ClpP1 in E. coli (L. monocytogenes); test: SEC

Substance: ClpP1 with a C-terminal Strep-tag II (heptamer, ClpP1_(7)) (enzyme)
percent ClpP1 in the tetradecamer peak (intact protein MS) [2]: 47 to 49%

Substance: ClpP2 co-expressed with ClpP1 in E. coli (enzyme)
stoichiometry N [4]: 14

Substance: Full-length ClpP2 with a C-terminal Strep-tag II (tetradecamer, ClpP2_(14)) (enzyme)
stoichiometry N [2]: 14

Continued, values first:

stoichiometry N [1]: 7
Substance: ClpP1 co-expressed with ClpP2 in E. coli (enzyme)

fold enrichment at 42 °C against 20 °C [3]: 6 fold
Substance: ClpP1, endogenous in L. monocytogenes (enzyme)
